From publication PMC11343135 come the findings set out here.

In series [1] the test system is SARS2-N/M (SUD-N/M) (SARS-CoV-2 (WA1)). Description: zone-interference gel electrophoresis.
For series [2], the system named is SARS1-N/M (SUD-N/M) (SARS-CoV). Kind of series: zone-interference gel electrophoresis.

In general, Kd refers to a measure of binding affinity in units of concentration. A higher Kd goes with weaker binding. BCL2 G4 quadruplex oligonucleotide: the figures for the Kd in series [1] and in series [2] were 4.1 µM and 1.6 µM, respectively.
